This is an account of results in patent US12448453 (NANJING IASO BIOTECHNOLOGY, dated 2025).

In experiment [1] the target is T1, human CD22 (human, UniProt P20273 20-687, limits assumed).
T1 construct: CD22-llama-Fc and CD22-his are named only for the yeast library sorting; also called CD22 antigen
The experiment in a line: ForteBio, antibody in the form of IgG, avid. A general note: Biolayer interferometry detects binding as a change in optical thickness at a sensor tip.

In experiment [2] the target is T1, human CD22. As to the kind of experiment: ForteBio, antibody in the form of Fab, monovalent.
Experiment [3] addresses T2, CD22 antigen on the surface of target cells (Raji, REH, NALM6, JVM2, 3E09, 3D11) (human, UniProt P20273 20-847). The experiment in a line: cell-based or functional assay.
Experiment [4] has as its target T2, CD22 antigen on the surface of target …. The experiment in a line: cell-based or functional assay. The source holds these as a separate data set.
Experiment [5] shares this target. As to the kind of experiment: cell-based or functional assay. The source holds these as a separate data set.
The target of experiment [6] is T3, CD22-FITC protein (Acro Biosystem, Cat. No. SI2-HF2H6) (UniProt P20273 20-687, FITC label).
T3 construct: Bought reagent; also called FITC-CD22 protein; CD22 protein
As to the kind of experiment: flow cytometry of CAR-T cells stained with FITC-CD22 protein and APC anti-CD8, quadrant gate. Background: A flow cytometer gives signals particle by particle.
Description: Cell samples were stained with APC mouse anti-human CD8, PE anti-human EGFR and FITC-CD22 protein.
When the cells were cultured to the 6th or 7th day, the expression of CAR molecules, tEGFR molecules and CD8 on the cell surface was detected by flow cytometry. […] On day 6 of cell culture, approximately 5 ×10^5 cells were removed from each sample individually, and the medium was removed by centrifugation at 500 g. […] The mixtures were mixed well and incubated at 4° C. in the dark for 20 min. After completion of incubation, the cells were washed twice with PBS+1% HSA solution again, re-suspended in 200 μL of PBS+1% HSA solution, and then loaded onto the instrument for testing.

B1: clone 80 anti-CD22 antibody in the form of IgG (antibody, V domains shown)
VH: QVQLQESGPGLVKPSGTLSLTCAVSGGSISSSNWWSWVRQPPGKGLEWIGEIYHSGSTNYNPSLKSRVTISVDKSKNQFSLKLSSVTAADTAVYYCARLPGYESAFDIWGQGTMVTVSS
VL: EIVLTQSPGTLSLSPGERATLSCRASQSVSSSYLAWYQQKPGQAPRLLIYGASSRATGIPDRFSGSGSGTDFTLTISRLEPEDFAVYYCQQAGLFPYTFGGGTKVEIK
notes: Fully human; tested 'in the form of IgG'
In the experiment with human CD22 [1], B1 showed a Kd of 0.82 nM, a Response of 0.93 nm, a koff of 0.0002 s⁻¹ and a kon of 240000 M⁻¹ s⁻¹.

B2: clone 80 anti-CD22 antibody in the form of Fab (Fab, V domains shown)
VH: QVQLQESGPGLVKPSGTLSLTCAVSGGSISSSNWWSWVRQPPGKGLEWIGEIYHSGSTNYNPSLKSRVTISVDKSKNQFSLKLSSVTAADTAVYYCARLPGYESAFDIWGQGTMVTVSS
VL: EIVLTQSPGTLSLSPGERATLSCRASQSVSSSYLAWYQQKPGQAPRLLIYGASSRATGIPDRFSGSGSGTDFTLTISRLEPEDFAVYYCQQAGLFPYTFGGGTKVEIK
notes: Tested 'in the form of Fab'
In the experiment with human CD22 [2], B2 displayed a Kd of 13 nM, a Response of 0.24 nm, a koff of 0.0046 s⁻¹ and a kon of 360000 M⁻¹ s⁻¹.

B3: clone 17 anti-CD22 antibody in the form of IgG (antibody, V domains shown)
VH: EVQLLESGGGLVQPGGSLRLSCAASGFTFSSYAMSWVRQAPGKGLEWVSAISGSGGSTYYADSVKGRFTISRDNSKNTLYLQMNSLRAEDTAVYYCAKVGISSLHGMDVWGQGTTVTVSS
VL: DIQMTQSPSTLSASVGDRVTITCRASQSISSWLAWYQQKPGKAPKLLIYKASSLESGVPSRFSGSGSGTEFTLTISSLQPDDFATYYCQQYERFPWTFGGGTKVEIK
notes: as for B1
In the experiment with human CD22 [1], B3 displayed a Kd of 1.6 nM, a Response of 0.62 nm, an off-rate (koff) of 0.0002 s⁻¹ and a kon of 130000 M⁻¹ s⁻¹.

B4: clone 17 anti-CD22 antibody in the form of Fab (Fab, V domains shown)
VH: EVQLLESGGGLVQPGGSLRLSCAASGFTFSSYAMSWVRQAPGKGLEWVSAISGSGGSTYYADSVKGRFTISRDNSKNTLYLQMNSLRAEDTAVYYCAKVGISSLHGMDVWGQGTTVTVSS
VL: DIQMTQSPSTLSASVGDRVTITCRASQSISSWLAWYQQKPGKAPKLLIYKASSLESGVPSRFSGSGSGTEFTLTISSLQPDDFATYYCQQYERFPWTFGGGTKVEIK
notes: Tested 'in the form of Fab'
In the experiment with human CD22 [2], B4 registered an equilibrium dissociation constant (Kd) of 8.1 nM, a Response of 0.19 nm, a koff of 0.0017 s⁻¹ and a kon of 210000 M⁻¹ s⁻¹.

B5: clone 28 anti-CD22 antibody in the form of Fab (Fab, V domains shown)
VH: QVQLQESGPGLVKPSETLSLTCTVSGGSISSYYWSWIRQPAGKGLEWIGRIYTSGSTNYNPSLKSRVTMSVDTSKNQFSLKLSSVTAADTAVYYCARDLYRDGMDVWGQGTTVTVSS
VL: DIQMTQSPSTLSASVGDRVTITCRASQSISSWLAWYQQKPGKAPKLLISDASSLESGVPSRFSGSGSGTEFTLTISSLQPDDFATYYCQQANTYSPTFGGGTKVEIK
notes: Tested 'in the form of Fab'
Regarding B5, in the experiment with human CD22 [2], the dissociation constant Kd was 0.94 nM, the Response turned out to be 0.25 nm, the koff came to 0.00027 s⁻¹ and the kon worked out at 280000 M⁻¹ s⁻¹.

B6: clone 28 anti-CD22 antibody in the form of IgG (antibody, V domains shown)
VH: QVQLQESGPGLVKPSETLSLTCTVSGGSISSYYWSWIRQPAGKGLEWIGRIYTSGSTNYNPSLKSRVTMSVDTSKNQFSLKLSSVTAADTAVYYCARDLYRDGMDVWGQGTTVTVSS
VL: DIQMTQSPSTLSASVGDRVTITCRASQSISSWLAWYQQKPGKAPKLLISDASSLESGVPSRFSGSGSGTEFTLTISSLQPDDFATYYCQQANTYSPTFGGGTKVEIK
notes: as for B1
For the molecule B6, in the experiment with human CD22 [1], the dissociation constant Kd was determined as 0.97 nM, the Response stood at 0.81 nm, the koff amounted to 0.0002 s⁻¹ and the kon came to 210000 M⁻¹ s⁻¹.

B7: clone 28 CAR (CD22-targeted chimeric antigen receptor, clone 28 scFv with CD8α hinge and transmembrane region, 4-1BB and CD3z), on reporter cells or CAR-T cells (other)
chain: QVQLQESGPGLVKPSETLSLTCTVSGGSISSYYWSWIRQPAGKGLEWIGRIYTSGSTNYNPSLKSRVTMSVDTSKNQFSLKLSSVTAADTAVYYCARDLYRDGMDVWGQGTTVTVSSGGGGSGGGGSGGGGSDIQMTQSPSTLSASVGDRVTITCRASQSISSWLAWYQQKPGKAPKLLISDASSLESGVPSRFSGSGSGTEFTLTISSLQPDDFATYYCQQANTYSPTFGGGTKVEIKFVPVFLPAKPTTTPAPRPPTPAPTIASQPLSLRPEACRPAAGGAVHTRGLDFACDIYIWAPLAGTCGVLLLSLVITLYCNHRNKRGRKKLLYIFKQPFMRPVQTTQEEDGCSCRFPEEEEGGCELRVKFSRSADAPAYQQGQNQLYNELNLGRREEYDVLDKRRGRDPEMGGKPRRKNPQEGLYNELQKDKMAEAYSEIGMKGERRRGKGHDGLYQGLSTATKDTYDALHMQALPPRGSGEGRGSLLTCGDVEENPG
notes: Chimeric antigen receptor on the cell surface; The entry ends with GSG and the T2A remnant; also called clone28-bbz
As for B7, in experiment [3], the “positive rate of CD107a in the CD8+/CAR+ cell population, target cell 3D11 (CD22 knockout/knockdown Raji)” value stood at 16.9%; the “positive rate of CD107a in the CD8+/CAR+ cell population, target cell JVM2” value was determined as 43.5%; the “positive rate of CD107a in the CD8+/CAR+ cell population, target cell NALM6” value was determined as 73.5%; the “positive rate of CD107a in the CD8+/CAR+ cell population, target cell REH” value was determined as 70.4%. In experiment [3], the “positive rate of CD107a in the CD8+/CAR+ cell population, target cell raji” value was 54.8%. In experiment [4], the “in vitro cell killing efficiency, target cells NALM6-ffLuc, 17 h, E:T 0.5:1” value was -26.8%; the “in vitro cell killing efficiency, target cells NALM6-ffLuc, 17 h, E:T 1:1” value is 13.8%; the “in vitro cell killing efficiency, target cells NALM6-ffLuc, 17 h, E:T 2:1” value stood at 76.1%. In experiment [5], the “in vitro cell killing efficiency, target cells REH-ffLuc, 17 h, E:T 0.5:1” value is -50.1%; the “in vitro cell killing efficiency, target cells REH-ffLuc, 17 h, E:T 1:1” value was -23.9%; the “in vitro cell killing efficiency, target cells REH-ffLuc, 17 h, E:T 2:1” value came out at 63.8%. In addition, in experiment [6], the “percent of cells in Q1 (FITC-CD22 positive, APC-CD8 negative)” value turned out to be 23.3% and the “percent of cells in Q2 (FITC-CD22 positive, APC-CD8 positive)” value is 12.7%.

B8: clone 80 CAR (CD22-targeted chimeric antigen receptor, clone 80 scFv with CD8α hinge and transmembrane region, 4-1BB and CD3z), on reporter cells or CAR-T cells (other)
chain: QVQLQESGPGLVKPSGTLSLTCAVSGGSISSSNWWSWVRQPPGKGLEWIGEIYHSGSTNYNPSLKSRVTISVDKSKNQFSLKLSSVTAADTAVYYCARLPGYESAFDIWGQGTMVTVSSGGGGSGGGGSGGGGSEIVLTQSPGTLSLSPGERATLSCRASQSVSSSYLAWYQQKPGQAPRLLIYGASSRATGIPDRFSGSGSGTDFTLTISRLEPEDFAVYYCQQAGLFPYTFGGGTKVEIKFVPVFLPAKPTTTPAPRPPTPAPTIASQPLSLRPEACRPAAGGAVHTRGLDFACDIYIWAPLAGTCGVLLLSLVITLYCNHRNKRGRKKLLYIFKQPFMRPVQTTQEEDGCSCRFPEEEEGGCELRVKFSRSADAPAYQQGQNQLYNELNLGRREEYDVLDKRRGRDPEMGGKPRRKNPQEGLYNELQKDKMAEAYSEIGMKGERRRGKGHDGLYQGLSTATKDTYDALHMQALPPRGSGEGRGSLLTCGDVEENPG
notes: Chimeric antigen receptor on the cell surface; also called clone80-bbz
B8: in experiment [3], the “positive rate of CD107a in the CD8+/CAR+ cell population, target cell 3D11 (CD22 knockout/knockdown Raji)” value turned out to be 18.9%; the “positive rate of CD107a in the CD8+/CAR+ cell population, target cell JVM2” value was determined as 32.8%; the “positive rate of CD107a in the CD8+/CAR+ cell population, target cell NALM6” value is 59.7%; the “positive rate of CD107a in the CD8+/CAR+ cell population, target cell REH” value was 62.3%. Further, the “positive rate of CD107a in the CD8+/CAR+ cell population, target cell raji” value in experiment [3] came to 39.7%. For the same molecule, in experiment [4], the “in vitro cell killing efficiency, target cells NALM6-ffLuc, 17 h, E:T 0.5:1” value came to 15.3%; the “in vitro cell killing efficiency, target cells NALM6-ffLuc, 17 h, E:T 1:1” value was 58.5%; the “in vitro cell killing efficiency, target cells NALM6-ffLuc, 17 h, E:T 2:1” value stood at 90.5%. Moreover, in experiment [5], the “in vitro cell killing efficiency, target cells REH-ffLuc, 17 h, E:T 0.5:1” value is -18.2%; the “in vitro cell killing efficiency, target cells REH-ffLuc, 17 h, E:T 1:1” value was 40.2%; the “in vitro cell killing efficiency, target cells REH-ffLuc, 17 h, E:T 2:1” value turned out to be 89%. In experiment [6], the “percent of cells in Q1 (FITC-CD22 positive, APC-CD8 negative)” value turned out to be 27.5% and the “percent of cells in Q2 (FITC-CD22 positive, APC-CD8 positive)” value came out at 17.6%.

Broadly, the Kd is the concentration at which binding is half-saturated. As a reminder, the koff is the rate constant with which the complex falls apart. Low readings indicate slow dissociation, high ones fast dissociation. One may read the kon as the second-order rate constant of association. Read a low kon as slower complex formation.
